Measured values published in US20210032299A1 (Eli Lilly, published 2021).
Starred links: 1 amine or outer side, 2 acyl side, 3 side chain; linkers in the order of their positions; H or OH if unused. Non-standard residues stand in square brackets, D forms with d. Groups on a side chain read outwards from the residue. No end group written: not given here. *: point of attachment. C20 diacid = O=C(O)CCCCCCCCCCCCCCCCCCC(=O)*; C18 diacid = O=C(O)CCCCCCCCCCCCCCCCC(=O)*; αMePhe(2-F) = C[C@](N)(Cc1ccccc1F)C(=O)O; γGlu = O=C(O)[C@H](CCC(=O)[*:2])N[*:1]; αMeF = C[C@](N)(Cc1ccccc1)C(=O)O; 4Pal = N[C@@H](Cc1ccncc1)C(=O)O; αMeL = CC(C)C[C@](C)(N)C(=O)O; AEEA = NCCOCCOCC(=O)O; Aib = CC(C)(N)C(=O)O

Columns and labels:
Experiment in all cases: cell-based or functional assay
[1] = target: human glucagon receptor (human, UniProt P47871 26-477)
Sequence of human glucagon receptor (P47871 26-477): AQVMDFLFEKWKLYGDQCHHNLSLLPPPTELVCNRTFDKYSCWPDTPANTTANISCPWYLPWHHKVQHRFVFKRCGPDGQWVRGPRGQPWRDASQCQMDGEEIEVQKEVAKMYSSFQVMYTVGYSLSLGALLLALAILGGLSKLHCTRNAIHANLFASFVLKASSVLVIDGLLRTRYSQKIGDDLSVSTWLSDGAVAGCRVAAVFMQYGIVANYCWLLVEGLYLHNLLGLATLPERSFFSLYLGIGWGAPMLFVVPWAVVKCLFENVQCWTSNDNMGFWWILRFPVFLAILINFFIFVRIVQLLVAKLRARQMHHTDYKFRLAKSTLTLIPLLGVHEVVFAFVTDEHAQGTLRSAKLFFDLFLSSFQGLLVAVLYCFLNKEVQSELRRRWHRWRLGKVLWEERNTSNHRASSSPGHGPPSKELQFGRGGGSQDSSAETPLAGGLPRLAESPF

[2] = target: T1, human glucose-dependent insulinotropic peptide receptor (human, UniProt P48546 22-466)
T1 sequence (looked up): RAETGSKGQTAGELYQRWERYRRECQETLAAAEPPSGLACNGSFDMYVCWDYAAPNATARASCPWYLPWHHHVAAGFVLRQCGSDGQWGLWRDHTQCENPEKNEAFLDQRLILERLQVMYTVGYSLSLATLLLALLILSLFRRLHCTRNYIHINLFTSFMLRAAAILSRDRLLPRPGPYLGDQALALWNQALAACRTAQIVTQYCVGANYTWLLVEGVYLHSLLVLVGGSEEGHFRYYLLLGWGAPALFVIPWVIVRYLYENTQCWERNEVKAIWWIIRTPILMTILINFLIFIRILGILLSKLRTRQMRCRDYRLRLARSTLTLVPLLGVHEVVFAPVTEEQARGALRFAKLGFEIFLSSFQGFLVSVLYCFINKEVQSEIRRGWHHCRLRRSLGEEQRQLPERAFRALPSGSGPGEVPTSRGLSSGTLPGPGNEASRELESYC

[3] = target: human GLP-1 receptor (human, UniProt P43220 24-463)

B1: Example 50 (peptide)
peptide: Y[Aib]EGT[αMeF]ISDYSI[αMeL]LDKK([AEEA-AEEA-γGlu-C20 diacid])HQ[Aib]DFVE[4Pal]LLAGGPSSGAPPPS-NH2
modifications: N-terminus assumed
SMILES: CC[C@H](C)[C@H](NC(=O)[C@H](CO)NC(=O)[C@H](Cc1ccc(O)cc1)NC(=O)[C@H](CC(=O)O)NC(=O)[C@H](CO)NC(=O)[C@@H](NC(=O)[C@](C)(Cc1ccccc1)NC(=O)[C@@H](NC(=O)CNC(=O)[C@H](CCC(=O)O)NC(=O)C(C)(C)NC(=O)[C@@H](N)Cc1ccc(O)cc1)[C@@H](C)O)[C@@H](C)CC)C(=O)N[C@@](C)(CC(C)C)C(=O)N[C@@H](CC(C)C)C(=O)N[C@@H](CC(=O)O)C(=O)N[C@@H](CCCCN)C(=O)N[C@@H](CCCCNC(=O)COCCOCCNC(=O)COCCOCCNC(=O)CC[C@H](NC(=O)CCCCCCCCCCCCCCCCCCC(=O)O)C(=O)O)C(=O)N[C@@H](Cc1c[nH]cn1)C(=O)N[C@@H](CCC(N)=O)C(=O)NC(C)(C)C(=O)N[C@@H](CC(=O)O)C(=O)N[C@@H](Cc1ccccc1)C(=O)N[C@H](C(=O)N[C@@H](CCC(=O)O)C(=O)N[C@@H](Cc1ccncc1)C(=O)N[C@@H](CC(C)C)C(=O)N[C@@H](CC(C)C)C(=O)N[C@@H](C)C(=O)NCC(=O)NCC(=O)N1CCC[C@H]1C(=O)N[C@@H](CO)C(=O)N[C@@H](CO)C(=O)NCC(=O)N[C@@H](C)C(=O)N1CCC[C@H]1C(=O)N1CCC[C@H]1C(=O)N1CCC[C@H]1C(=O)N[C@@H](CO)C(N)=O)C(C)C
For B1, the “hGcgR cAMP Rel EC50” value [1] was 371 nM, the “hGIPR cAMP Rel EC50” value [2] was 0.0212 nM and the “hGLP1R cAMP Rel EC50” value [3] was 41 nM.

B2: Example 51 (peptide)
peptide: Y[Aib]EGT[αMePhe(2-F)]ISDYSI[αMeL]LDKK([AEEA-AEEA-γGlu-C20 diacid])HQ[Aib]DFVE[4Pal]LLAGGPSSGAPPPS-NH2
modifications: N-terminus assumed
SMILES: CC[C@H](C)[C@H](NC(=O)[C@H](CO)NC(=O)[C@H](Cc1ccc(O)cc1)NC(=O)[C@H](CC(=O)O)NC(=O)[C@H](CO)NC(=O)[C@@H](NC(=O)[C@](C)(Cc1ccccc1F)NC(=O)[C@@H](NC(=O)CNC(=O)[C@H](CCC(=O)O)NC(=O)C(C)(C)NC(=O)[C@@H](N)Cc1ccc(O)cc1)[C@@H](C)O)[C@@H](C)CC)C(=O)N[C@@](C)(CC(C)C)C(=O)N[C@@H](CC(C)C)C(=O)N[C@@H](CC(=O)O)C(=O)N[C@@H](CCCCN)C(=O)N[C@@H](CCCCNC(=O)COCCOCCNC(=O)COCCOCCNC(=O)CC[C@H](NC(=O)CCCCCCCCCCCCCCCCCCC(=O)O)C(=O)O)C(=O)N[C@@H](Cc1c[nH]cn1)C(=O)N[C@@H](CCC(N)=O)C(=O)NC(C)(C)C(=O)N[C@@H](CC(=O)O)C(=O)N[C@@H](Cc1ccccc1)C(=O)N[C@H](C(=O)N[C@@H](CCC(=O)O)C(=O)N[C@@H](Cc1ccncc1)C(=O)N[C@@H](CC(C)C)C(=O)N[C@@H](CC(C)C)C(=O)N[C@@H](C)C(=O)NCC(=O)NCC(=O)N1CCC[C@H]1C(=O)N[C@@H](CO)C(=O)N[C@@H](CO)C(=O)NCC(=O)N[C@@H](C)C(=O)N1CCC[C@H]1C(=O)N1CCC[C@H]1C(=O)N1CCC[C@H]1C(=O)N[C@@H](CO)C(N)=O)C(C)C
In the case of B2, the “hGcgR cAMP Rel EC50” value [1] is reported as 308 nM, the “hGIPR cAMP Rel EC50” value [2] is reported as 0.0166 nM and the “hGLP1R cAMP Rel EC50” value [3] is reported as 24.7 nM.

B3: Example 53 (peptide)
peptide: Y[Aib]EGTFISDYSI[αMeL]LDKK([AEEA-AEEA-γGlu-C20 diacid])HQ[Aib]DFVEYLLAGGPSSGAPPPS-NH2
modifications: N-terminus assumed
SMILES: CC[C@H](C)[C@H](NC(=O)[C@H](Cc1ccccc1)NC(=O)[C@@H](NC(=O)CNC(=O)[C@H](CCC(=O)O)NC(=O)C(C)(C)NC(=O)[C@@H](N)Cc1ccc(O)cc1)[C@@H](C)O)C(=O)N[C@@H](CO)C(=O)N[C@@H](CC(=O)O)C(=O)N[C@@H](Cc1ccc(O)cc1)C(=O)N[C@@H](CO)C(=O)N[C@H](C(=O)N[C@@](C)(CC(C)C)C(=O)N[C@@H](CC(C)C)C(=O)N[C@@H](CC(=O)O)C(=O)N[C@@H](CCCCN)C(=O)N[C@@H](CCCCNC(=O)COCCOCCNC(=O)COCCOCCNC(=O)CC[C@H](NC(=O)CCCCCCCCCCCCCCCCCCC(=O)O)C(=O)O)C(=O)N[C@@H](Cc1c[nH]cn1)C(=O)N[C@@H](CCC(N)=O)C(=O)NC(C)(C)C(=O)N[C@@H](CC(=O)O)C(=O)N[C@@H](Cc1ccccc1)C(=O)N[C@H](C(=O)N[C@@H](CCC(=O)O)C(=O)N[C@@H](Cc1ccc(O)cc1)C(=O)N[C@@H](CC(C)C)C(=O)N[C@@H](CC(C)C)C(=O)N[C@@H](C)C(=O)NCC(=O)NCC(=O)N1CCC[C@H]1C(=O)N[C@@H](CO)C(=O)N[C@@H](CO)C(=O)NCC(=O)N[C@@H](C)C(=O)N1CCC[C@H]1C(=O)N1CCC[C@H]1C(=O)N1CCC[C@H]1C(=O)N[C@@H](CO)C(N)=O)C(C)C)[C@@H](C)CC
In the case of B3, the “hGcgR cAMP Rel EC50” value [1] is reported as 344 nM, the “hGIPR cAMP Rel EC50” value [2] is reported as 0.0194 nM and the “hGLP1R cAMP Rel EC50” value [3] is reported as > 5000 nM.

B4: Example 49 (peptide)
peptide: Y[Aib]EGTFISDYSI[αMeL]LDKK([AEEA-AEEA-γGlu-C18 diacid])HQ[Aib]DFVE[4Pal]LLAGGPSSGAPPPS-NH2
modifications: N-terminus assumed
SMILES: CC[C@H](C)[C@H](NC(=O)[C@H](Cc1ccccc1)NC(=O)[C@@H](NC(=O)CNC(=O)[C@H](CCC(=O)O)NC(=O)C(C)(C)NC(=O)[C@@H](N)Cc1ccc(O)cc1)[C@@H](C)O)C(=O)N[C@@H](CO)C(=O)N[C@@H](CC(=O)O)C(=O)N[C@@H](Cc1ccc(O)cc1)C(=O)N[C@@H](CO)C(=O)N[C@H](C(=O)N[C@@](C)(CC(C)C)C(=O)N[C@@H](CC(C)C)C(=O)N[C@@H](CC(=O)O)C(=O)N[C@@H](CCCCN)C(=O)N[C@@H](CCCCNC(=O)COCCOCCNC(=O)COCCOCCNC(=O)CC[C@H](NC(=O)CCCCCCCCCCCCCCCCC(=O)O)C(=O)O)C(=O)N[C@@H](Cc1c[nH]cn1)C(=O)N[C@@H](CCC(N)=O)C(=O)NC(C)(C)C(=O)N[C@@H](CC(=O)O)C(=O)N[C@@H](Cc1ccccc1)C(=O)N[C@H](C(=O)N[C@@H](CCC(=O)O)C(=O)N[C@@H](Cc1ccncc1)C(=O)N[C@@H](CC(C)C)C(=O)N[C@@H](CC(C)C)C(=O)N[C@@H](C)C(=O)NCC(=O)NCC(=O)N1CCC[C@H]1C(=O)N[C@@H](CO)C(=O)N[C@@H](CO)C(=O)NCC(=O)N[C@@H](C)C(=O)N1CCC[C@H]1C(=O)N1CCC[C@H]1C(=O)N1CCC[C@H]1C(=O)N[C@@H](CO)C(N)=O)C(C)C)[C@@H](C)CC
With B4 the “hGcgR cAMP Rel EC50” value [1] was 2860 nM, the “hGIPR cAMP Rel EC50” value [2] was 0.0156 nM and the “hGLP1R cAMP Rel EC50” value [3] was > 5000 nM.

B5: Example 52 (peptide)
peptide: Y[Aib]EGTFISDYSI[αMeL]LDKK([AEEA-AEEA-γGlu-C20 diacid])HQ[Aib]EFVE[4Pal]LLAGGPSSGAPPPS-NH2
modifications: N-terminus assumed
SMILES: CC[C@H](C)[C@H](NC(=O)[C@H](Cc1ccccc1)NC(=O)[C@@H](NC(=O)CNC(=O)[C@H](CCC(=O)O)NC(=O)C(C)(C)NC(=O)[C@@H](N)Cc1ccc(O)cc1)[C@@H](C)O)C(=O)N[C@@H](CO)C(=O)N[C@@H](CC(=O)O)C(=O)N[C@@H](Cc1ccc(O)cc1)C(=O)N[C@@H](CO)C(=O)N[C@H](C(=O)N[C@@](C)(CC(C)C)C(=O)N[C@@H](CC(C)C)C(=O)N[C@@H](CC(=O)O)C(=O)N[C@@H](CCCCN)C(=O)N[C@@H](CCCCNC(=O)COCCOCCNC(=O)COCCOCCNC(=O)CC[C@H](NC(=O)CCCCCCCCCCCCCCCCCCC(=O)O)C(=O)O)C(=O)N[C@@H](Cc1c[nH]cn1)C(=O)N[C@@H](CCC(N)=O)C(=O)NC(C)(C)C(=O)N[C@@H](CCC(=O)O)C(=O)N[C@@H](Cc1ccccc1)C(=O)N[C@H](C(=O)N[C@@H](CCC(=O)O)C(=O)N[C@@H](Cc1ccncc1)C(=O)N[C@@H](CC(C)C)C(=O)N[C@@H](CC(C)C)C(=O)N[C@@H](C)C(=O)NCC(=O)NCC(=O)N1CCC[C@H]1C(=O)N[C@@H](CO)C(=O)N[C@@H](CO)C(=O)NCC(=O)N[C@@H](C)C(=O)N1CCC[C@H]1C(=O)N1CCC[C@H]1C(=O)N1CCC[C@H]1C(=O)N[C@@H](CO)C(N)=O)C(C)C)[C@@H](C)CC
B5 was tested, and the “hGcgR cAMP Rel EC50” value [1] was 337 nM, the “hGIPR cAMP Rel EC50” value [2] was 0.0194 nM and the “hGLP1R cAMP Rel EC50” value [3] was > 5000 nM.

B6: Example 48 (peptide)
peptide: Y[Aib]EGTFISDYSI[αMeL]LDKK([AEEA-AEEA-γGlu-C20 diacid])HQ[Aib]DFVE[4Pal]LLAGGPSSGAPPPS-NH2
modifications: N-terminus assumed
SMILES: CC[C@H](C)[C@H](NC(=O)[C@H](Cc1ccccc1)NC(=O)[C@@H](NC(=O)CNC(=O)[C@H](CCC(=O)O)NC(=O)C(C)(C)NC(=O)[C@@H](N)Cc1ccc(O)cc1)[C@@H](C)O)C(=O)N[C@@H](CO)C(=O)N[C@@H](CC(=O)O)C(=O)N[C@@H](Cc1ccc(O)cc1)C(=O)N[C@@H](CO)C(=O)N[C@H](C(=O)N[C@@](C)(CC(C)C)C(=O)N[C@@H](CC(C)C)C(=O)N[C@@H](CC(=O)O)C(=O)N[C@@H](CCCCN)C(=O)N[C@@H](CCCCNC(=O)COCCOCCNC(=O)COCCOCCNC(=O)CC[C@H](NC(=O)CCCCCCCCCCCCCCCCCCC(=O)O)C(=O)O)C(=O)N[C@@H](Cc1c[nH]cn1)C(=O)N[C@@H](CCC(N)=O)C(=O)NC(C)(C)C(=O)N[C@@H](CC(=O)O)C(=O)N[C@@H](Cc1ccccc1)C(=O)N[C@H](C(=O)N[C@@H](CCC(=O)O)C(=O)N[C@@H](Cc1ccncc1)C(=O)N[C@@H](CC(C)C)C(=O)N[C@@H](CC(C)C)C(=O)N[C@@H](C)C(=O)NCC(=O)NCC(=O)N1CCC[C@H]1C(=O)N[C@@H](CO)C(=O)N[C@@H](CO)C(=O)NCC(=O)N[C@@H](C)C(=O)N1CCC[C@H]1C(=O)N1CCC[C@H]1C(=O)N1CCC[C@H]1C(=O)N[C@@H](CO)C(N)=O)C(C)C)[C@@H](C)CC
In the case of B6, the “hGcgR cAMP Rel EC50” value [1] is reported as 1360 nM, the “hGIPR cAMP Rel EC50” value [2] is reported as 0.0166 nM and the “hGLP1R cAMP Rel EC50” value [3] is reported as > 5000 nM.
